# Test results: patent US20220389097A1 (Genentech, published 2022)
# T1: soluble human TREM2 (sTREM2) (human, UniProt Q9NZC2 19-157)
# T1 construct: also called soluble TREM2; TREM2 ectodomain
# T1 sequence: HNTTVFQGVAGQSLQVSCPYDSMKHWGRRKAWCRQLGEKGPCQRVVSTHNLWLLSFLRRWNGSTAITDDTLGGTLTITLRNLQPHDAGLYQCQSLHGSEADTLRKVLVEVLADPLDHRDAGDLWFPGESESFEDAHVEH
# T2: soluble monomeric human TREM2 (human, UniProt Q9NZC2 19-174, limits assumed)
# T2 construct: Not the same as shed sTREM2; also called soluble monomeric TREM2
# T2 sequence: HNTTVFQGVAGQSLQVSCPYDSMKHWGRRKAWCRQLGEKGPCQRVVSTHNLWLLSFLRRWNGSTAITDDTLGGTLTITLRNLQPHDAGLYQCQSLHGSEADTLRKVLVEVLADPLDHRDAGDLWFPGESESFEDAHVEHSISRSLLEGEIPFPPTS
# T3: human TREM2 on cells (human, UniProt Q9NZC2 19-230)
# T3 sequence: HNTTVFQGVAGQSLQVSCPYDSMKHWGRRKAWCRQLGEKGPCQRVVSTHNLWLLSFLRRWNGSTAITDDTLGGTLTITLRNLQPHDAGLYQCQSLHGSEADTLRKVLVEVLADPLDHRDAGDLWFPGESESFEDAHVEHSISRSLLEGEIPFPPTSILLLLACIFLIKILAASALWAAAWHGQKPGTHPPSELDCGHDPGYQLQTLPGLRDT
# B1: control antibody 1.16B8 (antibody, mouse IgG2a, kappa, V domains shown)
# VH: EVQLVESGGGLVQPGRSLKLSCAASGFTFSDSAMAWVRQAPKKGLEWVATIIYDTSSTYYRDSVKGRFTISRDNAKSTLYLQMDSLRSEDTATYYCALFGVDVMDAWGQGASVTVSS
# VL: DIQMTQTPSSMPASLGERVTISCRASQGISNYLNWYQQKPDGTIKPLIYYTSNLQSGVPSRFSGSGSGTDYSLTISSLEPEDFAMYYCQQYDSSPWTFGGGTKLEIKR
# notes: also called CTL; 1.116B8
# B2: 3.10C2 D101E mutant IgG (antibody, name in Kabat numbering, V domains shown)
# VH: EVQLVETGGSLVQPGKSLKLTCATSGFPFSNVWMHWVRQSPEKQLEWIAHIKAKSDNYATYYAESVKGRFTISRDDSKTSIYLQMNSLKEDDTAIYYCTGLEYWGQGVMVTVSS
# VL: DTVLTQAPLSLSVTPGESASISCRSSKSLLGVRDITSLYWYLQKPGKSPQLLIYRMSNLASGVPDRFSGSGSETDFTLKISEVETEDVGVYYCAQFLRYPYTFGPGTKLELK
# notes: IgG captured on anti-human Fab chip
# B3: hPara.09.v2 hIgG1 N297G (antibody, V domains shown)
# VH: EVQLVESGGGLVQPGGSLKLSCATSGFPFSNVWLHWVRQASGKGPEWVAHIKAKSDNYATYYAESVKGRFTISRDDSKNTVYLQMNSLKTEDTAVYYCTDILEYWGQGTLVTVSS
# VL: DVVMTQSPLSLPVTPGEPASISCRSSRSLLTSKGITSLYWYLQKPGQSPQLLIYRMSNLASGIPDRFSGSGSGTDFTLKISRVEAEDVGVYYCAQFLVYPYTFGQGTKVEIKR
# notes: also called hPara.09.H5.hIgG1.N297G
# Legend:
# [1] = target: T1, soluble human TREM2 (sTREM2); experiment: sandwich ELISA: antibody coated as capture, sTREM2 from BMDM supernatant, biotinylated 3.17A9 detection
# Description: (§1) A human TREM2 ELISA assay was used to measure binding of more than forty antibodies to soluble TREM2 (sTREM2) as follows: test anti-hTREM2 antibodies were coated onto plate wells as capture reagents and a biotinylated IgV-reactive monoclonal antibody, 3.17A9, was used as the detection reagent. Antibody 1.16B8 was used as a control antibody to establish the standard for sTREM2 binding. Plates coated with test or control antibody were incubated with diluted culture supernatant from bone marrow-derived macrophage (BMDM) cultures from transgenic mice expressing hTREM2. sTREM2 is constitutively produced by the BMDM cultures expressing hTREM2 and shed into the culture supernatant. Measurements were recorded at 450 nm for detection and 570 nm for background. The 3.17A9/1.16B8 antibody pair was selected over reagents provided in the R&D Systems kit as the commercial reagents were not compatible with sTREM2 detection of some of the antibodies tested. Control antibody 1.16B8 light chain sequence is shown in SEQ ID NO: 170, and its heavy chain sequence is shown in SEQ ID NO: 171.
# [2] = target: T2, soluble monomeric human TREM2; experiment: SPR (Biacore 8K); mutant IgG on anti-human Fab chip, soluble monomeric TREM2
# Excerpt: The resulting library consists of individual IgG clones, each with one mutation per molecule in the heavy chain variable regions. Clones were screened for off-rate (dissociation rate) by SPR in a Biacore™ 8K instrument using anti-human Fab chips to capture mutant IgGs and soluble monomeric TREM2 as ligand.
# [3] = target: T3, human TREM2 on cells; experiment: cell-based or functional assay
# [4] = target: T3, human TREM2 on cells; experiment: cell-based or functional assay; remark: listed apart in the source
# [5] = target: T2, soluble monomeric human TREM2; experiment: SPR (Biacore T200), 37 C; IgG on anti-CH1 chip, soluble monomeric TREM2
# [6] = target: T1, soluble human TREM2 (sTREM2); experiment: sandwich ELISA: test antibody coated as capture, sTREM2 from BMDM culture supernatant, biotinylated 3.17A9 as detection
# Excerpt: For example, as shown in an Example 11 herein, the human TREM2 ELISA assay measured binding of antibodies to sTREM2 by coating onto plate wells the antibody to be tested as capture reagents and with biotinylated IgV-reactive monoclonal antibody 3.17A9 used as the detection reagent. Control antibody 1.16B8 was used as a positive control antibody to establish the standard for sTREM2 binding.
# as §1, with “Control antibody 1.16B8 light chain sequence is shown in SEQ ID NO: 170, and its heavy chain sequence is shown in SEQ ID NO: 171.” left out
binder,measurement,setting,value
B1,binding result,[1],binds
B2,binding result,[2],no binding
B3,"EC50, average X04 plaque intensity, human iPSC-derived microglia plaque assay (FIG. 24C)",[3],320 nM
same,"EC50, survival of iPSC-derived microglia (FIG. 23E)",[3],0.065 nM
same,"EC50, total Abeta plaque intensity, human iPSC-derived microglia plaque assay (FIG. 24B)",[3],330 nM
same,"phospho-SYK/total SYK relative to anti-gD control, iPSC-derived microglia, 1 hour",[3],2 fold
same,"phospho-SYK/total SYK relative to anti-gD control, iPSC-derived microglia, 4 hours",[3],> 10 fold
same,"EC50, Jurkat NFAT luciferase reporter cells",[4],0.0245 µg/mL
same,"IC50, TREM2 shedding inhibition in Jurkat-NFAT reporter cells (sTREM2 ELISA)",[4],0.162 µg/mL
same,Kd,[5],0.016 nM
same,koff,[5],3.5e-05 s⁻¹
same,kon,[5],2.3e+06 M⁻¹ s⁻¹
same,binding result,[6],no binding
